± gives the standard deviation.
Test: protein stability index of a GFP-peptide fusion (GPS, HEK-293T) (PSI 1-6); higher = more stable
[1] = treatment: DMSO, c terminus: a fixed tail appended
[2] = treatment: MLN4924 1 uM, 8 h, c terminus: a fixed tail appended
[3] = treatment: DMSO, c terminus: native
[4] = treatment: MLN4924 1 uM, 8 h, c terminus: native
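Note: 24-mer peptide tiles fused after GFP, lentivirally expressed, FACS-sorted into six equal bins by GFP/DsRed ratio, decoded by Illumina sequencing, PSI is the read-weighted mean bin number.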

Sequence | protein stability index [1] | protein stability index [2] | protein stability index [3] | protein stability index [4]
DNWIPLLWCANILGYAVSTFAMVK [DHCR7] | 3.04 ± 0.44 | 3.17 ± 0.12 | – | –
EKQADFLDKQMSRDEHRARAMKIP [NFE2L1] | 4.46 ± 0.16 | 4.58 ± 0.12 | – | –
TSSSSSSSRQTRPILKEQSSSSFS [KRT16] | 4.66 ± 0.14 | 4.61 ± 0.11 | – | –
QPSQQQQPPPQEEPGTPSSSPDDK [KLHL14] | 5.6 ± 0.26 | 5.59 ± 0.15 | – | –
DEWACELRLFGRVLERAACLRRCK [P3H4] | 2.74 ± 0.49 | 2.8 ± 0.6 | – | –
LWAGSKGKEFGYFPRDAVQIEEVF [MIA2] | 2.66 ± 0.51 | 2.77 ± 0.46 | – | –
MTSISLPSVMDPGAFETVLASAYT [ZBTB22] | 2.57 ± 0.23 | 2.72 ± 0.26 | – | –
YVSLGRLGAAKGALHPGCFAPLHP [CEBPB] | 3.44 ± 0.94 | 2.73 ± 0.17 | – | –
LMKKIGQCPMRVQKEVAGFVLNRL [CRYL1] | 2.34 ± 0.38 | 2.53 ± 0.24 | – | –
DSYSSTQHVPEELDLSSSSQMSPL [ATF6] | 5.29 ± 0.12 | 5.28 ± 0.073 | – | –
QRPLVSVTVSDASWVSELLWSLFV [AUP1] | 2.36 ± 0.2 | 2.14 ± 0.2 | – | –
STPLMEAAQEGHLELVKYLLAAGA [ANKRD17] | 2.22 ± 0.15 | 2.48 ± 0.65 | – | –
LEKGLEPEPQVPGPAHGPAQEEPW [ZNF232] | 5.35 ± 0.46 | 5.35 ± 0.25 | – | –
LEALIDTIQKQLKDHSCKDNIREA [EFHC1] | 3.55 ± 0.21 | 3.65 ± 0.25 | – | –
AEGVVLSDSPDAADSTSFDVQLGD [PPTC7] | 5.4 ± 0.59 | 5.64 ± 0.15 | – | –
MPPVSYDVQLLHSWNNNDRSLNVF [SPSB1] | 2.46 ± 0.15 | 2.26 ± 0.27 | – | –
EEDDDDDDDDNLPQLKKESELPFV [ANKRD40] | 5.32 ± 0.1 | 5.42 ± 0.18 | – | –
ILDIHFLSQADFLVCTFSSQVCRV [FUT8] | 3.52 ± 0.23 | 3.09 ± 0.16 | – | –
HHLPLPDNWKSQVEPETRAVIRWM [CPN1] | 2.62 ± 0.34 | 2.77 ± 0.44 | – | –
LEKEIEVLERGDSAPATAKENAAA [PALM] | 5.34 ± 0.2 | 5.62 ± 0.2 | – | –
YKIVTAREWRCCPGHSGVSCEEVA [EMID1] | 2.49 ± 0.32 | 2.39 ± 0.41 | – | –
SRVKCDQYWPSRGTETHGLVQVTL [PTPRD] | 2.42 ± 0.39 | 2.05 ± 0.4 | – | –
AKVKGHRSQKHKERIRLLRQKREA [C18orf25] | 4.07 ± 0.57 | 4.38 ± 0.16 | – | –

Sequence | protein stability index [1] | protein stability index [2] | protein stability index [3] | protein stability index [4]
AAYFLLSTNDKTVKLWKVSERDKR [PPP2R2B] | 2.51 ± 0.51 | 2.49 ± 0.26 | – | –
GVDPQQKMELGIDLLAYGAKAELP [MYOZ1] | 3.95 ± 0.083 | 4.05 ± 0.16 | – | –
DYMKEVGVGFATRKVAGMAKPNMI [FABP4] | 3.13 ± 0.48 | 3.06 ± 0.64 | – | –
MTQQGAALQNYNNELVKCIEELCQ [SSNA1] | 3.33 ± 0.4 | 3.4 ± 0.31 | – | –
MALPFFSLAEVRVGYQSQNISCFF [MYORG] | 3.15 ± 1.1 | 3.11 ± 0.89 | – | –
QEVPHEGPMCDLLWSDPDDRGGWG [PPP2CA] | 4.39 ± 0.32 | 4.61 ± 0.2 | – | –
REHAKARVDHGAEIITQSPGRSSV [MAP2] | 4.75 ± 0.11 | 4.89 ± 0.12 | – | –
RALLRRFPRMLLVDRLPGLQGALD [ZSWIM9] | 2.49 ± 0.25 | 2.52 ± 0.24 | – | –
DPLFGMCEKFLQEVDFFQRYFIAD [INTS4] | 2.6 ± 0.36 | 2.21 ± 0.35 | – | –
VAETSGETIQGFWLLTKIDHWNNE [TPRG1] | 2.11 ± 0.36 | 2.31 ± 0.26 | – | –
SLWERLEFVNGWYILLVTSDVLTI [MCOLN1] | 3.5 ± 0.68 | 3.08 ± 0.45 | – | –
LMHIAHIAELLEVFDLRMMVANIL [RHOBTB2] | 2.48 ± 0.4 | 2.31 ± 0.32 | – | –
EFLTNELSRKLMQLQHEKAELEQH [CCDC6] | 2.98 ± 0.16 | 3.05 ± 0.3 | – | –
NPMDMGTIKKRLENNYYWSASECM [BRD3] | 2.34 ± 0.31 | 2.65 ± 0.082 | – | –
AFADTHSCRELLRIADKFTQHNFQ [KLHL20] | 2.09 ± 0.21 | 2.02 ± 0.28 | – | –
PPALQNNLLSPLLTGTESPFDLEQ [NFE2L1] | 4.97 ± 0.29 | 5.04 ± 0.1 | – | –
LFFPEGTCSNKKALLKFKPGAFIA [LPCAT4] | 1.86 ± 0.38 | 2.41 ± 0.25 | – | –
YEDTNGQPQALLVDGDQSKILISG [TNXB] | 4.99 ± 0.13 | 4.73 ± 0.12 | – | –
YSKTWTKQPDLTMVRKIGCYAAMK [GAN] | 2.92 ± 0.96 | 2.42 ± 0.19 | – | –
QSDEEQDSVKVALLETNPYLLALT [CLPTM1] | 3.92 ± 0.19 | 4.16 ± 0.3 | – | –
LLNTDLHGHNIGKKMSCQQFIANL [PSD2] | 2.24 ± 0.29 | 2.46 ± 0.13 | – | –
TRRSTAEAFQIVLSHLLGDAGSPY [SPNS1] | 2.52 ± 0.58 | 2.56 ± 0.46 | – | –
MGGIMAPKDIMTNTHAKSILNSMN [KLHL12] | 2.83 ± 0.092 | 3.27 ± 0.47 | – | –

Sequence | protein stability index [1] | protein stability index [2] | protein stability index [3] | protein stability index [4]
LAPVRQQELASLLRTYLARLPWAG [PBXIP1] | 2.22 ± 0.28 | 2.12 ± 0.27 | – | –
ELSTLRNLFKQLPEPLLASSGHC [CEBPB] | – | – | 2.12 ± 0.44 | 2.38 ± 0.14
KFYAVLKGTILYLQKDEYRPDKAL [PSD2] | 2.83 ± 0.53 | 2.58 ± 0.44 | – | –
TAISSFTRHVFTCGRRGIKVWSLT [TLE6] | 2.15 ± 0.47 | 2.16 ± 0.44 | – | –
RYGQLIEINSHSLFSKWFSESGKL [TRIP13] | 2.27 ± 0.49 | 2.49 ± 0.83 | – | –
RGPVVPKHSTFGQSLTQRLHALKL [GNAS] | 2.4 ± 0.29 | 2.36 ± 0.28 | – | –
SGKVSSSSSSLGNKLQTLSPSHKG [ZC2HC1A] | 4.31 ± 0.14 | 4.26 ± 0.091 | – | –
GAQIWCGEGVDKLSLPARNQAGYF [ALDH8A1] | 2.47 ± 0.27 | 2.65 ± 0.37 | – | –
MLALRGQTGGDVNVEMDAAPGVDL [KRT16] | 4.25 ± 0.17 | 4.78 ± 0.17 | – | –
SIEVGGSVNFDGETIEGAPPLWAA [FEM1C] | 3.92 ± 0.28 | 4.12 ± 0.34 | – | –
TILNVRDPTGASIALFTARLHHPH [PTPN9] | 2.5 ± 0.21 | 1.89 ± 0.18 | – | –
GTEEKKKLIRDFDEKQQEANETLA [VTI1B] | 5.57 ± 0.22 | 5.51 ± 0.15 | – | –
QMELLLVNKLKWNLAAMTPHDFIE [CCND1] | 2.91 ± 0.6 | 2.71 ± 0.5 | – | –
QGSQASQAPPVPGPPPGAPHTPQT [NR2F2] | 5.13 ± 0.27 | 5 ± 0.51 | – | –
GSVGAAICGLQQDEEVSSLTCDAL [CCND2] | 4.54 ± 0.35 | 4.63 ± 0.25 | – | –
EADINGLRRVLDELTLSKTDLEMQ [KRT13] | 4.32 ± 0.079 | 4.26 ± 0.3 | – | –
HESEGGRTPLMKAARAGHVCTVQF [ANKRD17] | 2.71 ± 0.28 | 2.6 ± 0.33 | – | –
ALGSRGWEPFDWGRLLEALCREEP [FANCE] | 2.61 ± 0.2 | 2.82 ± 0.33 | – | –
AQTFLFQGQPVVNRPLSLKDQQTF [TRADD] | 3.25 ± 0.26 | 3.39 ± 0.23 | – | –
FGLSILWVLLFTPCSFVCWYRPMY [SCAMP3] | 2.97 ± 0.37 | 3.48 ± 0.32 | – | –
AGAARVARWRRLRLQQLRRLRGLL [FBXO33] | 3.13 ± 0.4 | 3.74 ± 0.43 | – | –
CEEKAKKNANRPLLDEIVPVYRRD [ACBD3] | 4.72 ± 0.18 | 4.61 ± 0.55 | – | –
IEAGAHMDATNAFKKTAYELLDEK [FEM1A] | 4.79 ± 0.21 | 5.04 ± 0.34 | – | –

Sequence | protein stability index [1] | protein stability index [2] | protein stability index [3] | protein stability index [4]
LRGKSIKRAPGEETEKEEEEEDRE [NEUROD6] | 5.66 ± 0.45 | 5.67 ± 0.3 | – | –
GGVLIDRYGRRTAIILSSCLLGLG [SLC2A12] | 2.86 ± 1 | 2.74 ± 1.3 | – | –
PQELLEWELVVLGKLKWNLAAVTP [CCND2] | 2.47 ± 0.77 | 2.36 ± 0.57 | – | –
WRITNAKGDVEEVQGPGVVGEFPI [FBXO3] | 3.75 ± 0.34 | 3.84 ± 0.48 | – | –
ETVYAAYLPKNTHPFLYLSLEISP [MLH1] | 2.82 ± 0.51 | – | – | –
VFGRGDNISDVSKFLEDDKWMEE [LUC7L3] | – | – | 2.4 ± 0.54 | 3.38 ± 0.96
SHLSDTGISALVEIPKNCVVAAVG [WDR41] | 3.09 ± 0.31 | 3.22 ± 0.25 | – | –
INLATMNSCINPIALYFVSKKFKN [EDNRA] | 2.83 ± 1.4 | 2.01 ± 0.13 | – | –
EITTLRQVLSAKERHLVEIKQKLG [TPD52L1] | 2.97 ± 0.57 | 3.16 ± 0.12 | – | –
YSYVVSRPQPRGLLGWGYYLIMLP [FAF2] | 2.89 ± 0.57 | 2.16 ± 0.37 | – | –
CNGILTEKMEEEEQTCDPDSSLHW [ZNF396] | 5.13 ± 0.18 | 5.01 ± 0.28 | – | –
AQVFPESPESESDHEHEEADLELS [GNAS] | 5.44 ± 0.27 | 5.46 ± 0.23 | – | –
TPKLDCFLSGMEAAPRTLAAHPPL [TBX6] | 3.18 ± 0.17 | 3.48 ± 0.2 | – | –
CDPGTDPCPEDASTPRPPEASSSP [TLE6] | 5.61 ± 0.26 | 5.58 ± 0.28 | – | –
GVRVSVPCPSTTCCRACSVSFSTG [BET1L] | 2.49 ± 0.38 | 2.35 ± 0.31 | – | –
CPLTRSNGDLSRSLSPSPLGSSAA [FCHO1] | 4.17 ± 0.22 | 4.17 ± 0.33 | – | –
SCKLVRDKITGQSLGYGFVNYSDP [ELAVL3] | 2.4 ± 0.19 | 2.5 ± 0.37 | – | –
SKDLYLISQMDSDQFIPIWTVANM [LARP4] | 2.51 ± 0.6 | 1.92 ± 0.36 | – | –
VCQEVLERSRDVVDEVSVSLRLWD [RHOBTB1] | 3.1 ± 0.48 | 3.36 ± 0.46 | – | –
ELIGDYSKAFLLQTVDGKHQDLKY [CDC25B] | 2.41 ± 0.18 | 2.51 ± 0.29 | – | –

— the supplement of paper PMC10567573
